Like-named read-outs stand apart in the source and are kept apart here.
How the values were obtained:
[1] = molecular target: Empty HBV Cp183 capsid (Hepatitis B Virus (strain not stated)) (UniProt P03147); test: negative stain TEM, 2D class averages
[2] = molecular target: Empty HBV Cp183 capsid (Hepatitis B Virus (strain not stated)) (UniProt P03147); test: charge detection mass spectrometry
[3] = molecular target: Empty HBV Cp183 capsid (Hepatitis B Virus (strain not stated)) (UniProt P03147); test: charge detection mass spectrometry; remark: listed apart in the source
[4] = molecular target: Empty HBV Cp183 capsid (Hepatitis B Virus (strain not stated)) (UniProt P03147); test: charge detection mass spectrometry; remark: listed apart in the source

UniProt P03147, sequence (P03147 whole entry): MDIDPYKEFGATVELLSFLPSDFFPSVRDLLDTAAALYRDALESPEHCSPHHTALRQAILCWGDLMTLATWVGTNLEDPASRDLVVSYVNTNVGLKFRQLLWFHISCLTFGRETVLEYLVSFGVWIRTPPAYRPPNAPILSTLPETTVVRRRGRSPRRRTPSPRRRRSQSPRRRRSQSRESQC

Substance “Importin β (from UniProt Q14974 1-876) (natural protein)” has a percent of empty capsids with externally bound Impβ [1] of 90%, a percent of particles with visible, externally bound Impβ [1] of 48% and a stoichiometry N (Impβ per capsid) [2] of 38. It also gave a stoichiometry N (Impβ per capsid) [3] of 64 and a stoichiometry N (Impβ per capsid) [4] of 38.

From doi:10.1101/2021.08.16.456586
